{"source": "patent US20190248902A1", "about": "(published 2019)", "key": {"[1]": {"target": "T1, recombinant, soluble human ASGR-1 (human, UniProt P07306 62-291)", "T1 construct": "biotinylated in the binning assay; also called soluble huASGR-1; Soluble ASGR-1 (Amgen)", "T1 sequence": "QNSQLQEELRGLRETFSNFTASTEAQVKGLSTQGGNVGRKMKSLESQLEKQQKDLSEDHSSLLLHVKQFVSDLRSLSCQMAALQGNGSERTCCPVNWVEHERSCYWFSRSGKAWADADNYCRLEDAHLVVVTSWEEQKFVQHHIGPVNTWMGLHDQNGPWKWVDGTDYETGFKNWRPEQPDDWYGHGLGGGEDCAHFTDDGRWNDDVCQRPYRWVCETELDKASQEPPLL", "test": "Octet BLI dissociation, pH 5.6 minus calcium", "procedure,_shortened": "(§1)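 Antibodies were captured on anti-human Fc biosensors, and soluble ASGR-1 (6 ug/ml) was associated for 2 min in Tris buffer containing 1 mM CaCl2 at pH 7.4, followed by 10 min dissociation under each test condition. The signal at the end of association was set as 100%. Percent ASGR-1 still bound after 1 min of dissociation was compared with the pH 7.4 plus calcium control, and >10% extra dissociation was scored as sensitive.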"}, "[2]": {"target": "T1, recombinant, soluble human ASGR-1", "test": "Octet BLI dissociation, pH 7.4 minus calcium", "procedure,_shortened": "as §1"}, "[3]": {"target": "T1, recombinant, soluble human ASGR-1", "test": "Octet BLI dissociation, pH 5.6 plus calcium", "procedure,_shortened": "as §1"}}}
{"binder": "196C7 (antibody, V domains shown, hybridoma mAb) VH: QVQLVESGGGVVQPGRSLRLSCAASGFTFSSYGMHWVRQAPGKGLEWVAVIWYDGSNEHYADSVKGRFTISRDNSKNTLYLQMNSLRAEDTAVYYCARDRGVGYYGLDVWGQGTTVTVSS VL: DIQMTQSPSSLSASVGDRVTITCRANQAISNYLAWFQQKPGKAPKSLIYAASSLQSGVPSKFSGSGSGTDFTLTISSLQPEDFATYYCQHYLTYPLTFGGGTKVEIK", "values": [{"measurement": "% Change Compared to pH 7.4 + Calcium", "setting": "[1]", "value": -12, "unit": "%"}, {"measurement": "% Change Compared to pH 7.4 + Calcium", "setting": "[2]", "value": -8, "unit": "%"}, {"measurement": "% Change Compared to pH 7.4 + Calcium", "setting": "[3]", "value": -12, "unit": "%"}]}
{"binder": "190F12 (antibody, V domains shown, hybridoma mAb) VH: QVQLVESGGGVVQPGRSLRLSCAASGFTFRNYGMHWVRQAPGKGLEWVAVIWFDGSNDYYADSVKGRFTISRDNSKNTLSLQMNSLRAEDTAVYYCARDRSVGYDGLDVWGQGTTVTVSS VL: DIQMTQSPSSLSASVGDRVTITCRASQGIGKYLAWFQQKPGKAPKSLIYAASSLQSGVPSKFSGSGSGTDFTLTISSLQPDDFATYYCQRYDTYPFTFGPGTKVDIK", "values": [{"measurement": "% Change Compared to pH 7.4 + Calcium", "setting": "[1]", "value": -6, "unit": "%"}, {"measurement": "% Change Compared to pH 7.4 + Calcium", "setting": "[2]", "value": -1, "unit": "%"}, {"measurement": "% Change Compared to pH 7.4 + Calcium", "setting": "[3]", "value": -6, "unit": "%"}]}
{"binder": "204G6 (antibody, V domains shown, hybridoma mAb) VH: QVQLVESGGGVVQPGRSLRLSCTASGFTFSSYGMHWVRQAPGKGLEWVAVIWYDGSNKNYADSVKGRFTISRDNSKNTLYLQMNSLRAEDTAVYYCARDRGVGYDGMDVWGQGTTVTVSS VL: DIRMTQSPSSLSASVGDRITITCRTSQGIGNYLAWFQQKPGKAPKSLIYAASSLQSGVPSRFSGSGSGTDFTLTISSLQPEDFATYYCQHYLSYPLTFGGGTKVEIK", "values": [{"measurement": "% Change Compared to pH 7.4 + Calcium", "setting": "[1]", "value": -10, "unit": "%"}, {"measurement": "% Change Compared to pH 7.4 + Calcium", "setting": "[2]", "value": -5, "unit": "%"}, {"measurement": "% Change Compared to pH 7.4 + Calcium", "setting": "[3]", "value": -11, "unit": "%"}]}
{"binder": "198G3 (antibody, V domains shown, hybridoma mAb) VH: QVQLVESGGGVVQPGRSLKLSCAASGFTFSTYGMHWVRQAPGKGLEWVAVIWYDGTNKNYADSVKGRFTISRDNSKNTLCLQMNSLRAEDTAVYYCARDQGVGYDGLDVWGQGTTVTVSS VL: DIQMAQSPSSLSASVGDRVTITCRTSQGIGKYLAWFQQKPGKAPKSLLYKASSLQGGVPSKFSGSGSGTDFTLTISSLQPEDFATYYCQQYMTYPLTFGGGTKVEIK", "values": [{"measurement": "% Change Compared to pH 7.4 + Calcium", "setting": "[1]", "value": -4, "unit": "%"}, {"measurement": "% Change Compared to pH 7.4 + Calcium", "setting": "[2]", "value": -1, "unit": "%"}, {"measurement": "% Change Compared to pH 7.4 + Calcium", "setting": "[3]", "value": -4, "unit": "%"}]}
{"binder": "197B6 (antibody, V domains shown, hybridoma mAb) VH: QVQLVESGGGVVQPGRSLRLSCAASGFTFSSYGMHWVRQAPGKGLEWVAVIWYDGSNKNYADSVKGRFTISRDNSKNMLYLQMNSLRAEDTAMYYCARDQGVGYDGLDVWGQGTSVTVSS VL: DIQMTQSPSSLSASVGDRVTITCRASQGIGKYLAWFQQKPGKAPKSLIYGASSLQSGVPSKFSGSGSGTDFTLTISSLQPENFATYYCQQYSTYPLTFGGGTKVEIK", "values": [{"measurement": "% Change Compared to pH 7.4 + Calcium", "setting": "[1]", "value": -7, "unit": "%"}, {"measurement": "% Change Compared to pH 7.4 + Calcium", "setting": "[2]", "value": -1, "unit": "%"}, {"measurement": "% Change Compared to pH 7.4 + Calcium", "setting": "[3]", "value": -8, "unit": "%"}]}
{"binder": "197F2 (antibody, V domains shown, hybridoma mAb) VH: QVQLVESGGGVVQPGRSLRLSCAASGFTFSSYGMHWVRQAPGKGLEWVAVIWYDGSNKNYADSVKGRFTISRDNSKNTLYLQMNSLRAEDTAVYYCARDQGVGYDGLDVWGQGTTVTVSS VL: DIQMIQSPSSLSASVGDRVTITCRTSQGIGNYLAWFQQKPGKAPKSLLYKTSSLQSGVPSKFSGSGSGTDFTLTISSLQPEDFATYYFQQYITYPLTFGGGTKVEIK", "values": [{"measurement": "% Change Compared to pH 7.4 + Calcium", "setting": "[1]", "value": -6, "unit": "%"}, {"measurement": "% Change Compared to pH 7.4 + Calcium", "setting": "[2]", "value": 0, "unit": "%"}, {"measurement": "% Change Compared to pH 7.4 + Calcium", "setting": "[3]", "value": -6, "unit": "%"}]}
{"binder": "190H9 (antibody, V domains shown, hybridoma mAb) VH: QVQLVESGGGVVQPGRSLRLSCAASGFTFRNYGMHWVRQAPGKGLEWVAVIWFDGSNDYYADSVKGRFTISRDNSKNTLSLQMNSLRAEDTAVYYCARDRSVGYDGLDVWGQGTTVTVSS VL: DIQMTQSPSSLSASVGDRVTITCRASQGIGKYLAWFQQKPGKALKSLIYAASSLQSGVPSKFSGSGSGTDFTLTISSLQPDDFATYYCQRYDTYPFTFGPGTKVDIK", "values": [{"measurement": "% Change Compared to pH 7.4 + Calcium", "setting": "[1]", "value": -7, "unit": "%"}, {"measurement": "% Change Compared to pH 7.4 + Calcium", "setting": "[2]", "value": -1, "unit": "%"}, {"measurement": "% Change Compared to pH 7.4 + Calcium", "setting": "[3]", "value": -6, "unit": "%"}]}
